The values below come from the supplement of paper PMC11780869.

The test system of the data set is Bacillus subtilis. The data set is described as follows: cleaved RNA product abundance (RNA/gDNA barcode ratio) relative to median wild-type variant (ratio to wild type); higher = more accumulation of the downstream cleavage product. Put shortly:
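The B. subtilis chromosome carried reporter mRNAs, truncated aprE or tetM, containing barcoded RNase Y cleavage-site windows mutagenized using oligos with a 9% error rate. After growth in LB at 37°C from OD600 0.0003 to 0.3, cleaved RNA was gel-selected, reverse transcribed and barcode-sequenced next to genomic DNA barcodes, with UMI collapsing. Each construct's RNA:gDNA barcode ratio was scaled to the median construct with the unmutated site. That scaled ratio is reported as cleaved product abundance.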

The mark [1] stands for this setting: experiment (reporter, strain, medium): exp 4a: truncated aprE reporter, strain BJT201 with 2% xylose (RNase J1 expressed), cleavage site: cggR-gapA (positions -7 to +36 mutated).
Setting [2] is: experiment (reporter, strain, medium): exp 2b: truncated aprE reporter, strain BJT200, cleavage site: cggR-gapA (positions -7 to +36 mutated).
[3] abbreviates: experiment (reporter, strain, medium): exp 8a: truncated aprE reporter, strain BJT201 with 2% xylose (RNase J1 expressed), cleavage site: glnRA (positions -5 to +31 mutated).
[4] abbreviates: experiment (reporter, strain, medium): exp 6: tetM reporter, strain 168, cleavage site: cggR-gapA (positions -7 to +36 mutated).

In the case of “ACAGACGAAGGAGCCGCAAAGACGTTATTAAGGGATGAATAATCCCTCAAGATAAATATCTCTCACTTATTTAAA”, the “cleaved RNA product abundance” value under setting [1] was determined as 0.205.

On to “ACAGACGAAGGAGCCGCAAAACAGTTATTAAGGGATGAATAATCCCTCAATATAAATATCTCTCACTTATTTAAA”, for which the “cleaved RNA product abundance” value is 0.865 under setting [2] and 0.897 under setting [1].

For “CGACATGTCCCGCTTCTTTCATTAATCCGTTAGCAACTGTTTTGCTATATACATATACGTTTTAAGAGGAGGAAT”, the “cleaved RNA product abundance” value under setting [3] was 1.29.

For the sequence “ACAGACGAAGGAGCCGCAAAGAGGTTATTAAGGGATGAATAATCCCTAAATATAAATATCTCTCACTTATTTAAA”, under setting [1], the “cleaved RNA product abundance” value turned out to be 0.386.

As to “CGACATGTCCCGCTTCTTTCATTAATCCGTTAGCAACTGTTTTGCTATATATATTTACTTTTTAAGAGGAGGAAT”, the “cleaved RNA product abundance” value under setting [3] amounted to 1.89.

Regarding “ACAGACGAAGGAGCCGCAAAGAAGTTATTAAGGGTTGAATAATCCCACAATATAAATATCTCTCACTTATTTAAA”, under setting [1], the “cleaved RNA product abundance” value was found to be 0.0861.

For the sequence “ACAGACGAAGGAGCCGCAAAGAAGTTATTAAGAGATGAATAATCCCTCCATATAAATATCTCTCACTTATTTAAA”, the “cleaved RNA product abundance” value under setting [2] turned out to be 0.0792.

As for “CGACATGTCCCGCTTCTTTCATTATTCCGTTAGCAACTGGTTTGCTATATACATTTACCTTTTAAGAGGAGGAAT”, the “cleaved RNA product abundance” value under setting [3] came out at 1.54.

Regarding “ACAGACGAAGGAGCCGCAAAGAAGTTATTATGGGATGAATAATCCCTCAATATATATATCTCTCACTTATTTAAA”, the “cleaved RNA product abundance” value under setting [1] turned out to be 0.503.

With “ACAGACGAAGGAGCCGCAAAGAAGTTATTAAAGGATGAATAATCCCTCAAAATAAATATCTCTCACTTATTTAAA”, the “cleaved RNA product abundance” value came to 0.148 under setting [2] and 0.152 under setting [1].

Regarding “CGACATGTCCCGCTTCTTTCATTACTCCGTTAGCAACTGTTTTGCTATGTACATTTACCTTTTAAGAGGAGGAAT”, under setting [3], the “cleaved RNA product abundance” value was 0.117.

With “CGACATGTCCCGCTTCTTTCATTAAGCCGTTACCAACTGTTTTGCTATATACATTTACCTTTTAAGAGGAGGAAT”, the “cleaved RNA product abundance” value under setting [3] amounted to 0.21.

Regarding “CGACATGTCCCGCTTCTTTCATTAATCCGTTAGCAACTGTTTTGGTATATACATTTACATTTTAAGAGGAGGAAT”, under setting [3], the “cleaved RNA product abundance” value is 0.529.

Turning to “ACAGACGAAGGAGCCGCAAAGAAGTGATTAAGGGATGAGTAATCCCTCAATATAAATATCTCTCACTTATTTAAA”, the “cleaved RNA product abundance” value under setting [1] was found to be 0.285.

“CGACATGTCCCGCTTCTTTCATTAATCCCTTAGCAACTGTTTTGCTATATATATTTACCTTTTAAGAGGAGGAAT”: the “cleaved RNA product abundance” value under setting [3] came to 0.163.

In the case of “CGACATGTCCCGCTTCTTTCATTAATCCGTTACCAATTGTTTTGCTATATACATTTACCTTTTAAGAGGAGGAAT”, the “cleaved RNA product abundance” value under setting [3] worked out at 0.16.

Take “ACAGACGAAGGAGCCGCAAAGAAGTTATTAAGGGATGAATAATACCACAATATAAATATCTCTCACTTATTTAAA”: the “cleaved RNA product abundance” value by setting is: under setting [2], 0.0894; under setting [1], 0.0911.

Turning to “ACAGACGAAGGAGCCGCAAAGAAGTTATTAAGGGATGAGTAATCCCTCAATATAAATATCTCTCACTTATTTAAA”, the “cleaved RNA product abundance” value is 0.484 under setting [2], 0.596 under setting [1] and 0.74 under setting [4].

For the sequence “ACAGACGAAGGAGCCGCAAAAAAGTTATTAAGAGATAAATAATCCCTCAATATAAATATCTCTCACTTATTTAAA”, the “cleaved RNA product abundance” value under setting [1] was 0.0994.

For the sequence “ACAGACGAAGGAGCCGCAAGGAAGTTATTAAGGGATGAATCATCCCTCAATATAAATATCTCTCACTTATTTAAA”, the “cleaved RNA product abundance” value is, setting by setting: under setting [2], 0.824; under setting [1], 0.633.

“CGACATGTCCCGCTTCTTTCATTAATCCGTTAGCAACTGTTTTCCTATAAACATTTACCTTTTAAGAGGAGGAAT”: the “cleaved RNA product abundance” value under setting [3] amounted to 0.526.

Turning to “ACAGACGAAGGAGCCGCAAAGAACTTATTAAGGGATGAATAATCACTCAATATAAATATCTCTCACTTATTTAAA”, the “cleaved RNA product abundance” value reads like this: under setting [2], 0.102; under setting [1], 0.152.

In the case of “CGACATGTCCCGCTTCTTTCATTAATCCGTTAGCAACTGATTTGCTATAAACATTTACCTTTTAAGAGGAGGAAT”, under setting [3], the “cleaved RNA product abundance” value is 0.686.

With “CGACATGTCCCGCTTCTTTCATTAATCCGTTAGCAACTGTTTTGCTATAAACATTTACCTTTTAAGAGGAGGAAT”, the “cleaved RNA product abundance” value under setting [3] was found to be 0.603.

Regarding “ACAGACGAAGGAGCCGCAAAGAAGTTATTAAGGGATGATTAATCCCTCAAGATAAATATCTCTCACTTATTTAAA”, the “cleaved RNA product abundance” value under setting [1] stood at 0.304.

In the case of “ACAGACGAAGGAGCCGCAAAGAAGTTATTAAAGGATGAATATTCCCTAAATATAAATATCTCTCACTTATTTAAA”, the “cleaved RNA product abundance” value under setting [2] turned out to be 0.0923.

With “CGACATGTCCCGCTTCTTTCATTAATCCTTTAGCATCTCTTTTGCTATATACATTTACCTTTTAAGAGGAGGAAT”, under setting [3], the “cleaved RNA product abundance” value turned out to be 0.512.

For “ACAGACGAAGGAGCCGCAAAGAATTTATTAAGGGATGAACAATCCCTCAATATAAATATCTCTCACTTATTTAAA”, the “cleaved RNA product abundance” value under setting [1] amounted to 0.451.

“ACAGACGAAGGAGCCGCAAAGAAGTTATTAACGGATGAATAATCCCTCTATATAAATATCTCTCACTTATTTAAA”: under setting [1], the “cleaved RNA product abundance” value was 0.133.

Turning to “CGACATGTCCCGCTTCTTTCATTAATCCGTTAGCAAGTGTTTTGCTATATCCATTTACCTTTTAAGAGGAGGAAT”, the “cleaved RNA product abundance” value under setting [3] is 0.273.

“CGACATGTCCCGCTTCTTTCATTATTCCGTTCGCAACTGTTTTGCTATATACATTTACCTTTTAAGAGGAGGAAT”: under setting [3], the “cleaved RNA product abundance” value came out at 0.283.

On to “ACAGACGAAGGAGCCGCAAAGAAGTTATTAAGGGATGAATAATACCTCAATATAATTATCTCTCACTTATTTAAA”, for which, under setting [1], the “cleaved RNA product abundance” value is 0.165.

As to “ACAGACGAAGGAGCCGCAAAGAAGTTATTAAGGGAAGAATAATCACTCAATATAAATATCTCTCACTTATTTAAA”, the “cleaved RNA product abundance” value runs as follows: under setting [2], 0.109; under setting [1], 0.104.

Regarding “CGACATGTCCCGCTTCTTTCATTAATCCGTTTTCAACTGTTTTGCTATATACATTTACCTTTTAAGAGGAGGAAT”, the “cleaved RNA product abundance” value under setting [3] came to 0.247.

With “CGACATGTCCCGCTTCTTTCATTAAACCGTTAGCAACTGTTTTACTATATACATTTACCTTTTAAGAGGAGGAAT”, the “cleaved RNA product abundance” value under setting [3] was 0.458.

As for “ACAGACGAAGGAGCCGCAAAGAAGGTATTAAAGGATGAATAATCCCTCAATATAAATATCTCTCACTTATTTAAA”, the “cleaved RNA product abundance” value under setting [1] was found to be 0.189.

In the case of “ACAGACGAAGGAGCCGCAAAGAAGTTATTAAGGGATGAACAATCCCTCAATATAAATATCTCTCACTTATTTAAA”, the “cleaved RNA product abundance” value amounted to 0.842 under setting [2], 0.864 under setting [1] and 0.875 under setting [4].

For “CGACATGTCCCGCTTCTTTCATTAATCCGTTCGCAATTGTTTTGCTATATACATTTACCTTTTAAGAGGAGGAAT”, the “cleaved RNA product abundance” value under setting [3] was 0.31.

Turning to “ACAGACGAAGGAGCCGCAAAGAAGTTATTAAGGGTTGAATAATCCCTGAATATAAATATCTCTCACTTATTTAAA”, the “cleaved RNA product abundance” value under setting [1] came to 0.299.

Consider “ACAGACGAAGGAGCCGCAAAGAAGTACTTAAGGGATGAATAATCCCTCAATATAAATATCTCTCACTTATTTAAA”, for which the “cleaved RNA product abundance” value under setting [1] came out at 0.243.

Consider “ACAGACGAAGGAGCCGCAAAGAAGTTATTAAGGGATGAATAATCCCTCTATATATATATCTCTCACTTATTTAAA”, for which the “cleaved RNA product abundance” value under setting [1] is 0.418.

For “ACAGACGAAGGAGCCGCAAACAACTTATTAAGGGATGAATAATCCCTCAATATAAATATCTCTCACTTATTTAAA”, under setting [2], the “cleaved RNA product abundance” value came out at 0.172.

“ACAGACGAAGGAGCCGCAAAGAAGTTATTAAGGTATGAATAATCCCTCAATATAAACATCTCTCACTTATTTAAA”: under setting [1], the “cleaved RNA product abundance” value is 0.124.

In the case of “ACAGACGAAGGAGCCGCAAAGTAGTTATTAAGGGATGAATAATCCCTCAATGTAAATATCTCTCACTTATTTAAA”, the “cleaved RNA product abundance” value under setting [1] was determined as 0.13.

Regarding “ACAGACGAAGGAGCCGCTAAGAAGTTATTAAGGGATGAATAATCCCACAATATAAATATCTCTCACTTATTTAAA”, the “cleaved RNA product abundance” value under setting [1] was determined as 0.252.

Turning to “ACAGACGAAGGAGCCGCAAAGAATTTATTAAGGGATGAATAATCCGTCAATATAAATATCTCTCACTTATTTAAA”, under setting [1], the “cleaved RNA product abundance” value was determined as 0.163.

In the case of “ACAGACGAAGGAGCCGCAAATAAGTTATTAAGGGATGAATAATCCCTCGATATAAATATCTCTCACTTATTTAAA”, the “cleaved RNA product abundance” value under setting [2] is 0.459.
